Patent US6531296

Biological target: T1, GST-RbC, Rb fusion protein encoding amino acids 780-928 (COOH-terminal domain only) (UniProt P06400)
T1 sequence (looked up): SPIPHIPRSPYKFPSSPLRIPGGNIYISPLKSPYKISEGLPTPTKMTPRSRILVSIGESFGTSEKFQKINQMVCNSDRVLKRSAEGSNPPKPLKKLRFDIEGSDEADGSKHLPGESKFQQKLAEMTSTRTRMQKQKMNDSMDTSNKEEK
Test: in vitro translated Rak on GST-RbC beads, SDS-PAGE and autoradiography (FIG. 5B, upper panel)

fold less binding than to the RbABC fusion protein: 5 fold less
B1: Rak protein (p54^rak), full-length nuclear tyrosine kinase (enzyme)
chain: MSNICQRLWEYLEPYLPCLSTEADKSTVIENPGALCSPQSQRHGHYFVALFDYHAPTAEELSFRAGDKLQVLDTLHEGWWFARHLEKRRDGSSQQLQGYIPSNYVAEDRSLQAEAWFFGAIRRSDAEKQLLYSENKTGSFLIRESESQKGEFSLSVLDGAVVKHYRIKRLDEGGFFLTRRRIFSTLNEFVSHYTKTSDGLCVKLGKPCLKIQVPAPFDLSYKTVDQWEIDRNSIQLLKRLGSGQFGEVWEGLWNNTTPVAVKTLKPGSMDPNDFLREAQIMKNLRHPKLIQLYAVCTLEDPIYIITELMRHGSLQEYLQNDTGSKIHLTQQVDMAAQVASGMAYLESRNYIHRDLAARNVLVGEHNIYKVADFGLARVFKVDNEDIYESRHEIKLPVKWTAPEAIRSNKFSIKSDVWSFGILLYEIITYGKMPYSGMTGAQVIQMLAQNYRLPQPSNCPQQFYNIMLECWNAEPKERPTFETLRWKLEDYFETDSSYSDANNFIR
